Substrate in data set [1]: Nc1ncnc2c1ncn2[C@@H]1O[C@H](COP(=O)(O)OP(=O)(O)OP(=O)(O)O)[C@@H](O)[C@H]1O
Nature of the data set: purified protein. The format is biochemical, Clostridium thermosuccinogenes. The conditions noted are these: 5 mM D-galactose, 10 mM MgCl2, 100 mM KCl, MOPS pH 7.0, 55 °C.

Substrate in data set [2]: Nc1nc2c(ncn2[C@@H]2O[C@H](COP(=O)(O)OP(=O)(O)OP(=O)(O)O)[C@@H](O)[C@H]2O)c(=O)[nH]1
In words: purified protein. The format is biochemical, Clostridium thermosuccinogenes. The conditions noted are these: 5 mM D-galactose, 10 mM MgCl2, 100 mM KCl, MOPS pH 7.0, 55 °C.

Drawing on PMC6543838, “Assessing Cofactor Usage in Pseudoclostridium thermosuccinogenes via Heterologous Expression of Central Metabolic Enzymes” (Frontiers in Microbiology, 2019), this text covers Km and kcat for 1 protein.

The Km is the concentration of substrate that gives half-maximal velocity.

B1: galactokinase (GalK), CDQ83_02810 (Clostridium thermosuccinogenes) (protein)
chain: DINQLKQKFIEIFGDNGEALRVFSSPGRVNLIGEHTDYNGGYVFPAALTLSSTVVARPRKDRQINLIATDLGIMVSASLDELEKHKDIKWGNYQLGVADELQKAGYKLVGCDMLFHDTVPLGSGLSSSAAIEVVTAITLVTLGNEAHGVNSGIDMVEMAKISQTAEHNYVGVNCGIMDQFASAMGKANHAIFLDCKDLSFEHVPLDLKGYRIVISNTKKKRSLGAVKYNERRSECEAGLEILKKAIPGISCLGEISAEQFEKNKHLITDEVVRKRVEHVIYEDDRVLKSVEALKKGDLHSFGRYMIESHNSLRDLYEVTGLELDTLVEEALKIDGVIGSRMTGAGFGGCTVSIVREDAVDRFIEDVGSAYTQKTGITAEFYVSEVGDGGREIK
notes: full length, N-terminal His6-TEV tag kept, E. coli Rosetta, HisTrap purified
Regarding B1, in “purified protein [1]”, the Km was determined as 3980 µM and the kcat is on record as 1.07 ⋅ 10^3 U/umol of. Also, in “purified protein [2]”, the Km was 35 µM and the kcat was 2.56 ⋅ 10^3 U/umol of.
